Measured values as given in US20040203016.
Where two headings read alike, the source gives them in different places.

Legend:
R recombinase [1] = experiment: cell_activity; conditions: in vivo resolution after 4 h in LB+IPTG (3% after 1 h)
R recombinase [2] = conditions: in vitro resolution between RS sites, recombinants

With RS site the activity (R recombinase [1]) was 15% and the activity (R recombinase [2]) was 30%.
